Assay results from the DeepSol protein solubility set.

Test: soluble on expression in E. coli; label from the status in PepcDB or PDB records

Sequence | soluble on expression in E. coli
VHEGHRKRLKERFLREGLDSFEQHQVLELLLFFSIPRKDTNELAHTLLNRYGSLSGVFEADPKDLATTPGIGENSAILLSLIPHLSRRYLNDKWRDKPELNSSAKAGQYAISLFAGRNYEVFYVICLDAQNRVNYAELVHEGTINEAPVYPRIIVETALRHKANSVILAHNHPGGTLNPSKADIEATKRIKAALEAISIKVVDHIIVCGGQYVSFAEKGLLSG | soluble
VIADDFTGATDIASFLVENGMPTVQINDVPTGTQPEGCDAVVISLKTRSCPAQEAIKQSLAALVWLKKQGCQQVYFKYCSTFDSTAEGNIGPVTDALMVALDTSFTVISPALPVNGRTVYQGYLFVMNHLLAESGMRHHPINPMTDSYLPRLMEAQAQGRCGVIPAQTLDEGVAATRAALSRLQQEGYRYAVLDALNERHLEIQGEVLRDAPLVTGGSGLAMGLARQWAKHGVSQARSAGYPLSGRAVVLSGSCSQMTNQQVAFYRQHAPTRDVDVARCLSSETREAYAEALAQWVLSQDSELAPMISATASTQALAAIQQQYGATEASHAVEALFSLLAARLAEGGITRFIVAGGETSGVVTQSLGITGFHIGPCISPGVPWVNALHAPVSLALKSGNFGDES | not soluble
VIGYEYPDWIWGWTNTVTYKNFTLSFTLDGRVGGMAHSKTNQAMWNSGAHIDSDNQWRYDEVVNKKTNFVGSGVKVVSGSVDYDSNGKIIHDNRVFAPNDVQVSYESYMKSTNPYIGTVTRQNVFDETFFKLRDLSLSYQMPKSVCDKLHMKGLTLAFVGQNLFVWTKEFRFTDPDSDSDNLSSPSTRYLGFNVKLDF | not soluble
VIVAGARTPIGKLMGSLKDFSASELGAIAIKGALEKANVPASLVEYVIMGQVLTAGAGQMPARQAAVAAGIGWDVPALTINKMCLSGIDAIALADQLIRAREFDVVVAGGQESMTKAPHLLMNSRSGYKYGDVTVLDHMAYDGLHDVFTDQPMGALTEQRNDVDMFTRSEQDEYAAASHQKAAAAWKDGVFADEVIPVNIPQRTGDPLQFTEDEGIRANTTAAALAGLKPAFRGDGTITAGSASQISDGAAAVVVMNQEKAQELGLTWLAEIGAHGVVAGPDSTLQSQPANAINKALDREGISVDQLDVVEINEAFAAVALASIRELGLNPQIVNVNGGAIAVGHPLGMSGTRITLHAALQLARRGSGVGVAALCGAGGQGDALILRAG | not soluble
VKLAAGMGVMSDLEKKFIELEAKLVAQPAGQAMPGKSNIFANNEAWRQEMLKQDPEFFNRLANGQSPEYLWIGCADSRVPANQLLDLPAGEVFVHRNIANQCIHSDISFLSVLQYAVQYLKVKHILVCGHYGCGGAKAALGDSRLGLIDNWLRHIRDVRRMNAKYLDKCKDGDEELNRLIELNVLEQVHNVCATSIVQDAWDAGQELTVQGVVYGVGDGKLRDLGVVVNSSDDISKFYRTKSDSGALKAGNPNAPLVQVTKGGESELDSTMEKLTAELVQQTPGKLKEGANRVFVNNENWRQKMLKQDPQFFSNLAHTQTPEILWIGCADSRVPANQIINLPAGEVFVHRNIANQCIHSDMSFLSVLQYAVQYLKVKRVVVCGHYACGGCAAALGDSRLGLIDNWLRHIRDVRRHNQAELSRITDPKDSLNRLIEINVLEQMHNVCATSIVQDAWDAGQELEVQGVVYGVGDGKLRDMGVVAKANDDIGQIFRTKQ | soluble
VKLTEKQKAFCDYYIETLNATESYKKAGYKVKTDGAARVNASRLLTNANVRKYIEERMKQKESERIASQDEVLEFLTRVMRGQEVEEVVGFTEYGAVKEKKTPSARDRVKAAELLGKRYALFTEKVNVEGNMGVAIIDDIKEDDSDDAS | soluble
VLGVTPDTEVVKPTRTQAERTAAMRTKLLDAAVDSLVELGYARTTTQGIARRAGVSRGAQLHHFPTKESLVVAAVEHLVDKRMEEILAADVDAGRGVDVLADAFSGPLFYAALELWVAARTDPALYEATVPLERKVNDALRRGSAEVFGDRFDADTIELSIELVRGLAVSALFRTPEAEQSLRARLLPVWESKVEKS | not soluble
VNQQLNSATKLFSVKLGATRVIYHAGTAGATLSVSNPQNYPILVQSSVKAADKSSPAPFLVMPPLFRLEANQQSQLRIVRTGGDMPTDRETLQWVCIKAVPPENEPSDTQAKGATLDLNLSINACDKLIFRPDAVKGTPEDVAGNLRWVETGNKLKVENPTPFYMNLASVTVGGKPITGLEYVPPFADKTLNMPGSAHGDIEWRVITDFGGESHPFHYVLK | soluble
VNVVQLASAPLHRIVAYTNESCALALYRDQDATLVFAKQVESANQLRYQLDLYRPVSVLWGASGHAVLAHLPPERVRTLLKKEPLSPTGLAALPARELNRDLKQIREQGYSVSTRGEKIEGAAGISTPIFGTGGHVIGCFSLFIPRIRYPEHRETELAQLLVREAGALSDVLAGRQAAPA | not soluble
